B1: DNA aptamer 5 (ssDNA)
DNA: ATCCAGAGTGACGCAGCAGGACTGCTTAGGATTGCGAAGCTGAGGAGCTCCCCCGCCTTGGACACGGTGGCTTAGT
B2: DNA aptamer 2 (ssDNA)
DNA: ATCCAGAGTGACGCAGCATCGAGTGGTGGGCTGGTCGGGTTTGGATTCCCTTAGATGCTGGACACGGTGGCTTAGT
B3: DNA aptamer 8 (ssDNA)
DNA: ATCCAGAGTGACGCAGCATTTCATCGGGTCCAAAAGGGGCTGCTCGGGATTGCGGATATGGACACGT
B4: DNA aptamer 7 (ssDNA)
DNA: CAGCACCGACCTTGTGCTTTGGGAGTGCTGGTCCAAGGGCGTTAATGGACA
B5: DNA aptamer 6 (ssDNA)
DNA: ATCCAGAGTGACGCAGCAGTAGGGGGATTGGCTCCAGGGCCTGGCTGACGGTTGCACGTGGACACGGTGGCTTAGT
B6: DNA aptamer 4 (ssDNA)
DNA: ATCCAGAGTGACGCAGCATTTCATCGGGTCCAAAAGGGGCTGCTCGGGATTGCGGATATGGACACGGTGGCTTAGT
B7: DNA aptamer 3 (ssDNA)
DNA: ATCCAGAGTGACGCAGCACTGCGTAGGCGCGGCCAATGTGTAGGATTGCTCAGGTCTGCTGGACACGGTGGCTTAGT

Key:
SARS-CoV-2 spike protein = SARS-CoV-2 spike protein (SARS-CoV-2, UniProt P0DTC2 P0DTC2:14-1213); experiment: cell-based or functional assay
HCoV-229E spike protein = HCoV-229E spike protein (Human coronavirus 229E, UniProt P15423 P15423:16-1115)
HCoV-229E spike protein, sequence (P15423 16-1115, one chain of several): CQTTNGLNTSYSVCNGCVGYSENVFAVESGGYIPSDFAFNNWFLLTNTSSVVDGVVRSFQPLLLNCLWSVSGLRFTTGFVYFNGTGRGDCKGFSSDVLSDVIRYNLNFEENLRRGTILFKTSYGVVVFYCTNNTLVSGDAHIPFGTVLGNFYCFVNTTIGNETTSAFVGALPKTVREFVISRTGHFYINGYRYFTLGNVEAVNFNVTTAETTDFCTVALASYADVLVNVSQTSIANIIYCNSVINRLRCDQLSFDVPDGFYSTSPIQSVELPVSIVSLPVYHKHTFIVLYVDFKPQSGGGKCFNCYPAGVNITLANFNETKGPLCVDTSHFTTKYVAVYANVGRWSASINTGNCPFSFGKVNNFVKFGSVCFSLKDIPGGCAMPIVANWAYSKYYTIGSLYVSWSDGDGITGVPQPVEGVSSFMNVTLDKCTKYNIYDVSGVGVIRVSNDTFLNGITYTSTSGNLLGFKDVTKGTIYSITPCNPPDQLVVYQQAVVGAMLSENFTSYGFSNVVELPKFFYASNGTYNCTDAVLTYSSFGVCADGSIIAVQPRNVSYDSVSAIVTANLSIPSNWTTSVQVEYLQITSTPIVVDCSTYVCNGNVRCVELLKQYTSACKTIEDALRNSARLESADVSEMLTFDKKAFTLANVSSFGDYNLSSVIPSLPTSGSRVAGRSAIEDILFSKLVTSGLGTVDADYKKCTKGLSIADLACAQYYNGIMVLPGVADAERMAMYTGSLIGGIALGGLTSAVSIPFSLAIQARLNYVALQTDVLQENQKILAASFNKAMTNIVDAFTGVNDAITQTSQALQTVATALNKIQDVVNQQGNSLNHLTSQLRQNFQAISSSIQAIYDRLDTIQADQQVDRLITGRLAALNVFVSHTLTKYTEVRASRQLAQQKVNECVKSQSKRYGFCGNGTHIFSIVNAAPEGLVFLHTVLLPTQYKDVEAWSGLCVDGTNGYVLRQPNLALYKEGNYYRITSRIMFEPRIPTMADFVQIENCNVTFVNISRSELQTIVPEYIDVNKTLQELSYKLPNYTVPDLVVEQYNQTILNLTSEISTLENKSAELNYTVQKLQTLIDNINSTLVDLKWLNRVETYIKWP

HCoV-NL63 spike protein = HCoV-NL63 spike protein (Human coronavirus NL63, UniProt Q6Q1S2 Q6Q1S2:19-1296)
HCoV-NL63 spike protein, sequence (Q6Q1S2 19-1296, one chain of several): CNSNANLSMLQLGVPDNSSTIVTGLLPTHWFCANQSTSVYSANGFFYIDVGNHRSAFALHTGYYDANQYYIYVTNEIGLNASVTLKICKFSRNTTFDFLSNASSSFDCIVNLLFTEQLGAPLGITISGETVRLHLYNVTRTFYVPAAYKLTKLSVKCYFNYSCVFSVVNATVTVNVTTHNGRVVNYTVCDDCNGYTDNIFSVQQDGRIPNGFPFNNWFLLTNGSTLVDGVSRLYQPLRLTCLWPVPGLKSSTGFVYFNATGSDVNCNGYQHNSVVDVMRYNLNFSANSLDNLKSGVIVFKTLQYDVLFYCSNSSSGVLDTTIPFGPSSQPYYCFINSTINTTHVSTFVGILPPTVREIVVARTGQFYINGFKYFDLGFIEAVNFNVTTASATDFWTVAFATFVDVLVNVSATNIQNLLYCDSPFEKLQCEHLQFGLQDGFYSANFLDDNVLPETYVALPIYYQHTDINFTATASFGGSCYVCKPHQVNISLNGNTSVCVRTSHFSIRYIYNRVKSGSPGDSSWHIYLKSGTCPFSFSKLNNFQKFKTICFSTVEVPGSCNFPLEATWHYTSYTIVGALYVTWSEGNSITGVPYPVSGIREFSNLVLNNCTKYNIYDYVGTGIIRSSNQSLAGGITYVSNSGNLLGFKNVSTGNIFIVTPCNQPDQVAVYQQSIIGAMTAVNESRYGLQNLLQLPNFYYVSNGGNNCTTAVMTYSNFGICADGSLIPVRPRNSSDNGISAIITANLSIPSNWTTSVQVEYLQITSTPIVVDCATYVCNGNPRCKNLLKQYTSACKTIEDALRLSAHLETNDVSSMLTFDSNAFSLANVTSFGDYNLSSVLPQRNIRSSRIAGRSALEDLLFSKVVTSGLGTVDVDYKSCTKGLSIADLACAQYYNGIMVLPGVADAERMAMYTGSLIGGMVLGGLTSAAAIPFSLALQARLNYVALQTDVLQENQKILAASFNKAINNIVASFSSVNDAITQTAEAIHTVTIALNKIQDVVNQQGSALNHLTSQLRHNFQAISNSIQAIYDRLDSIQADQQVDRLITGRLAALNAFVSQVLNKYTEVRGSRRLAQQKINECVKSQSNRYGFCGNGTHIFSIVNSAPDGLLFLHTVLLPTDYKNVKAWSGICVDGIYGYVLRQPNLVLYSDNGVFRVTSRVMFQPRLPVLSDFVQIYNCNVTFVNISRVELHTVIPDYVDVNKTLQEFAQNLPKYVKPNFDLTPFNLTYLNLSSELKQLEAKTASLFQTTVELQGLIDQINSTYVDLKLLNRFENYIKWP

Binder	activity (SARS-CoV-2 spike protein)	binding result (HCoV-229E spike protein)	binding result (HCoV-NL63 spike protein)
B1	9.7 nM	–	–
B2	8 nM	–	–
B3	8.9 nM	–	–
B4	–	no binding	no binding
B5	7.8 nM	–	–
B6	9 nM	–	–
B7	10 nM	–	–
